Publication PMC4609182 (The EMBO Journal, 2015)
Numbering of substitutions follows the chain as printed. Numbers in names are those of the source. Blank lines part the entries; values can stand above or below the binder they belong to.

Tests used:
Settings in all cases: both partners purified
[1] = biological target: Phosphorylated ubiquitin (phospho-Ser65 ubiquitin) (UniProt P0CG48 1-76, phosphoserine at 65); assay: ITC; Parkin constructs titrated with pUb; 20°C; 50 mM Tris–HCl pH 7.4, 150 mM NaCl, 1 mM TCEP; stoichiometry determined experimentally
[2] = biological target: T1, UbcH7 (E2 ubiquitin-conjugating enzyme) (UniProt P68036 1-154); assay: NMR titration; 15N-UbcH7 with unlabeled Parkin constructs with or without pUb; 1H-15N correlation spectra, 293 K; 20 mM Tris–HCl, 120 mM NaCl, 2 mM DTT, pH 7.4; binding read as loss of signals
T1 sequence (P68036 whole entry): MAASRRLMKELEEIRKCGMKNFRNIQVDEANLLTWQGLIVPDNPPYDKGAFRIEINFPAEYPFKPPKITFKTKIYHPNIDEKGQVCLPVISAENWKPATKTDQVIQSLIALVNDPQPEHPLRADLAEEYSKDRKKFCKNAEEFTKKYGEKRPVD

[3] = biological target: T1, UbcH7 (E2 ubiquitin-conjugating enzyme); assay: ITC; Parkin constructs titrated with UbcH7; 20°C; 50 mM Tris–HCl pH 7.4, 150 mM NaCl, 1 mM TCEP; stoichiometry fixed to 1:1
[4] = biological target: His-tagged phosphorylated ubiquitin (UniProt P0CG48 1-76, phosphoserine at 65); assay: pull-down; 1 nmol His-tagged pUb on Ni-NTA resin, 15 min with 1 nmol R0RBR variant; TBS, 2 mM BME, 0.02% Igepal 630; SDS–PAGE, Coomassie

B1: Phosphorylated Parkin (phospho-Ser65 in the Ubl domain) (enzyme, rat, UniProt Q9JK66 1-465, looked up)
chain: MIVFVRFNSSYGFPVEVDSDTSIFQLKEVVAKRQGVPADQLRVIFAGKELQNHLTVQNCDLEQQSIVHIVQRPQRKSHETNASGGDKPQSTPEGSIWEPRSLTRVDLSSHILPADSVGLAVILDTDSKSDSEAARGPEAKPTYHSFFVYCKGPCHKVQPGKLRVQCGTCRQATLTLAQGPSCWDDVLIPNRMSGECQSPDCPGTRAEFFFKCGAHPTSDKDTSVALNLITNNSRSIPCIACTDVRNPVLVFQCNHRHVICLDCFHLYCVTRLNDRQFVHDAQLGYSLPCVAGCPNSLIKELHHFRILGEEQYNRYQQYGAEECVLQMGGVLCPRPGCGAGLLPEQGQKKVTCEGGNGLGCGFVFCRDCKEAYHEGECDSMFEASGATSQAYRVDQRAAEQARWEEASKETIKKTTKPCPRCNVPIEKNGGCMHMKCPQPQCKLEWCWNCGCEWNRACMGDHWFDV
modifications: phosphoserine at 65
Kd [1]: 17 nM

B2: W403A Parkin (enzyme, rat, UniProt Q9JK66 1-465, looked up)
chain: B1 chain with W403A
binding result [2]: binds

B3: Full-length L266K Parkin (enzyme, rat, UniProt Q9JK66 1-465, looked up)
chain: B1 chain with L266K
Kd [1]: 37 nM

B4: Full-length Parkin, unmodified (enzyme, rat, UniProt Q9JK66 1-465, looked up)
chain: B1 chain
Kd [1]: 431 nM

B5: H302A Parkin R0RBR (domain or fragment, rat)
chain: PTYHSFFVYCKGPCHKVQPGKLRVQCGTCRQATLTLAQGPSCWDDVLIPNRMSGECQSPDCPGTRAEFFFKCGAHPTSDKDTSVALNLITNNSRSIPCIACTDVRNPVLVFQCNHRHVICLDCFHLYCVTRLNDRQFVHDAQLGYSLPCVAGCPNSLIKELAHFRILGEEQYNRYQQYGAEECVLQMGGVLCPRPGCGAGLLPEQGQKKVTCEGGNGLGCGFVFCRDCKEAYHEGECDSMFEASGATSQAYRVDQRAAEQARWEEASKETIKKTTKPCPRCNVPIEKNGGCMHMKCPQPQCKLEWCWNCGCEWNRACMGDHWFDV
Kd [1]: 1330 nM

B6: W403A Parkin R0RBR (domain or fragment, rat)
chain: B5 chain with A162H, W263A
Kd [3]: 119000 nM

B7: Parkin R0RBR module (RING0, RING1, IBR, RING2), wild type (domain or fragment, rat)
chain: B5 chain with A162H
Kd [1]: 22 nM
Kd [3]: > 700000 nM

B8: K369A Parkin R0RBR (domain or fragment, rat)
chain: B5 chain with A162H, K229A
binding result [4]: binds

B9: R275A Parkin R0RBR (domain or fragment, rat)
chain: B5 chain with R135A, A162H
binding result [4]: binds

Other lines, results leading:

binding result [4]: binds
B10: R334A Parkin R0RBR (domain or fragment, rat)
chain: B5 chain with A162H, R194A

binding result [4]: binds
B11: R314A Parkin R0RBR (domain or fragment, rat)
chain: B5 chain with A162H, R174A

binding result [4]: binds
B12: R271A Parkin R0RBR (domain or fragment, rat)
chain: B5 chain with R131A, A162H

binding result [4]: binds
B13: K161N Parkin R0RBR (domain or fragment, rat)
chain: B5 chain with K21N, A162H
